Positions count from the first letter of the chain named.

This note sets out measurements from patent US20230250168A1 (MABWELL SHANGHAI BIOSCIENCE, published 2023).

In assay [1] the target is T1, antigen human CLDN18.2, His-tagged (human, UniProt P56856-2 1-261, limits assumed).
T1 construct: Recombinant antigen used in the Fortebio assay (His-tagged, captured on NTA probe); also called His-tagged antigen; not shown: His tag
As to the kind of experiment: BLI (Fortebio), His-tagged antigen on NTA probe, 100 nM antibody, 1:1 fit. On the procedure: (§1) The binding kinetic parameters of the chimeric antibodies and the humanized antibodies thereof to the antigen human CLDN18.2 were analyzed by a Fortebio (BLITZ pro1.1.0.28) instrument. Before performing the assay, an NTA bioprobe was soaked in PBS for 10 min, and the probe was then placed in PBS containing 100 nM antigen for 300 s to capture the His-tagged antigen. The probe was further subjected to a binding reaction with 100 nM antibody for a binding time of 400 s, and the probe was then transferred to PBS and subjected to a dissociation reaction for 600 s. When the assay was finished, data from which the response value of a blank control had been deducted were fitted to a 1:1 Langmuir binding model using software, and then the kinetic constants for antigen-antibody binding were calculated.
A general note: In BLI a coated tip is dipped into the sample, and binding shifts an interference pattern.

Assay [2] concerns the target T1, antigen human CLDN18.2, His-tagged. The experiment in a line: BLI (Fortebio), His-tagged antigen on NTA probe; ratio to 8K13-xiIgG. On the procedure: as §1
Assay [3] shares this target. As to the kind of experiment: BLI (Fortebio), His-tagged antigen on NTA probe; ratio to 52E22-xiIgG. The method, then:
as §1

For assay [4], the target named is T2, human CLDN18.2 expressed on cell surfaces (human, UniProt P56856-2 1-261). As to the kind of experiment: cell-based or functional assay.
Assay [5] addresses T1, antigen human CLDN18.2, His-tagged. As to the kind of experiment: SPR (BIAcore), antibody captured by anti-human Fc, antigen as analyte. The method, then:
Referring to the instructions provided in the Human Antibody Capture Kit (cat No. BR-1008-39, Lot 10261753) from GE Healthcare, the analytical channel and the control sample channel on a CM5 sensor chip were first saturated and coupled with the maximum amount of anti-human Fc antibody, then buffers containing anti-human CLDN18.2 chimeric antibodies, humanized antibodies or a control antibody IMAB362 at 7.5 μg/ml were allowed to flow through the analytical channel and uniformly distribute. Finally, antigen samples diluted in gradient (the initial concentration was 20 nM and diluted by 1:3 to get 8 concentrations, and the concentration 0.741 nM was set to be repeated) were allowed to flow through both the analytical channel and the sample channel, and the photoreactions upon the binding of antibody to antigen were measured. Subsequently, the association constant Kon and dissociation constant Koff and affinity constant KD of each antibody were finally obtained by instrument software fitting analysis.

For assay [6], the target named is T2, human CLDN18.2 expressed on cell …. As to the kind of experiment: cell-based or functional assay. The source holds these as a separate data set.
Assay [7] shares this target. The experiment in a line: FACS of hybridoma supernatants on CHOK1 cells. On the procedure:
Balb/c mice were immunized with CHOK1 cells stably expressing human CLDN18.2 protein on cell surfaces. One month later, sera from the mice were analyzed by flow cytometry (FACS), and spleens were taken from mice having high antibody titers in sera. The spleen cells isolated by standard methods were fused with myeloma cells P3X63Ag8.653 using PEG or electrofusion methods. The fused hybridoma cells were seeded in 384 well plates, and after 10-14 days of culture, supernatants obtained were analyzed by FACS for antibody secretion by the hybridoma cells. Several clones were obtained that were able to bind to CHOK1 cells stably expressing human CLDN18.2 protein on cell surfaces and were not able to bind to CHOK1 cells stably expressing human CLDN18.1 protein on cell surfaces. Single cells of the obtained clones were obtained by Limiting Dilution, and each of the monoclonal hybridoma cell clones obtained after being diluted three times secreted only one antibody.

B1: 8K13-hz00 (antibody, human IgG1, V domains shown)
VH: QVQLVQSGAEVKKPGSSVKVSCKASGYAFSNYWMNWVRQAPGQGLEWMGQIYPGNGDTKYSGKFNSRVTITADESTSTAYMELSSLRSEDTAVYYCARFYYGNVMDYWGQGTLVTVSS
VL: DIVMTQSPDSLAVSLGERATINCKSSQTLLNGGNQKNYLTWYQQKPGQPPKLLIYWASTRESGVPDRFSGSGSGTDFTLTISSLQAEDVAVYYCQNGYSYPLTFGQGTKLEIK
notes: Humanized (direct CDR graft)
For orientation: Kd means the free concentration of one partner at which half of the binding sites on the other are occupied at equilibrium, for simple one-to-one binding. One may read the koff as the first-order rate constant of dissociation. High values mean fast dissociation, low ones slow dissociation. Usually kon stands for the rate constant with which the complex forms. A high value points to faster complex formation. Regarding B1, in assay [1], the affinity, expressed as Kd, was 0.744 nM; the Response is 0.133; the off-rate (koff) turned out to be 0.000198 s⁻¹; the kon is 266000 M⁻¹ s⁻¹. Besides, in assay [2], the “Koff/Koff(Xi-IgG)” value was 1.74.

B2: 52E22-hz00 (antibody, human IgG1, V domains shown)
VH: QVQLVQSGSELKKPGASVKVSCKASGYTLTNYGMNWVRQAPGQGLEWMGWIRPNTGEPTYAEDFKGRFVFSLDTSVSTAYLQICSLKAEDTAVYYCARLYRGNTLDNWGQGTLVTVSS
VL: B1 VL with T28N, G32S, K36R, Y100F, L102F
notes: Humanized (direct CDR graft)
In the case of B2, in assay [1], binding was characterised by a dissociation constant (Kd) of 0.309 nM, the Response worked out at 0.188, the koff is 6.11e-05 s⁻¹ and the on-rate constant (kon) is 198000 M⁻¹ s⁻¹. For the same molecule, the “Koff/Koff(Xi-IgG)” value in assay [3] came to 1.72.

B3: 8K13-hz11 (antibody, V domains shown)
VH: B1 VH with E74K, S77N
VL: B1 VL with M4L, V89L
B3: in assay [1], the affinity, expressed as Kd, was 0.297 nM; the Response is 0.139; the off-rate constant (koff) was 6.73e-05 s⁻¹; the association rate constant (kon) is 227000 M⁻¹ s⁻¹. Also, the “Koff/Koff(Xi-IgG)” value in assay [2] stood at 0.59.

B4: 52E22-hz12 (antibody, human IgG1, V domains shown)
VH: B2 VH with V2I, S77A, C84T
VL: B1 VL with T28N, N31S, G32S, K36R, V89L, N96Q, Y100F, L102F
notes: Humanized; also called 52E22-hz12 IgG; 52E22-12 IgG
Take B4: the “ADCC reporter EC50 (Jurkat NFAT-luciferase effector cells), CHOK1 target cells” value in assay [4] worked out at 0.567 nM. For the same molecule, in assay [1], the Kd was 0.36 nM, the Response stood at 0.226, the koff was found to be 7.83e-05 s⁻¹ and the on-rate (kon) amounted to 218000 M⁻¹ s⁻¹. In assay [5], this molecule gave a Kd of 1.18 nM, an off-rate (koff) of 0.000172 s⁻¹ and a kon of 146000 M⁻¹ s⁻¹. In addition, in assay [6], the “CDC EC50, CHOK1 cells stably expressing human CLDN18.2 (CCK-8)” value turned out to be 2.08 nM. Also, the “Koff/Koff(Xi-IgG)” value in assay [3] was 2.21.

B5: 52E22-hz11 (antibody, human IgG1, V domains shown)
VH: B2 VH with V2I, S77A, C84T
VL: DIVMTQSPDSLAVSLGERATINCKSSQNLLNSGNQRNYLTWYQQKPGQPPKLLIYWASTRESGVPDRFSGSGSGTDFTLTISSLQAEDLAVYYCQNGYSFPFTFGQGTKLEIKR
notes: Only the position of the reverse mutation is printed; copies: 2 + 2
Turning to B5, in assay [1], the affinity, expressed as Kd, was 0.542 nM; the Response amounted to 0.238; the off-rate constant (koff) was 0.000197 s⁻¹; the kon is 363000 M⁻¹ s⁻¹. Moreover, the “Koff/Koff(Xi-IgG)” value in assay [3] is 5.55.

B6: murine antibody 50C14 (antibody, V domains shown)
VH: EVQLRQSGPELVKPGASVKMSCKASGYTFTTYIINWVKQKPGQGLEWIGYINPYNDGTRYNERVKGKATLTSDKSSSTAYMELSSLTSEDSAVYYCARFHFGNSFTYWGQGTLVTVSA
VL: DIVMTQSPSSLPVTTGEKVTMTCKSSQGLFNNGNQRNYLTWYQQKPGQPPKLLIYWASTRESGVPDRFIGSGSGTDFTLTISSVQAEDLAIYYCQNNYIFPLTFGAGTKLELK
notes: Mouse hybridoma antibody (supernatant)
Regarding B6, the binding result in assay [7] is reported as “binds”.

B7: 52E22-xiIgG (antibody, V domains shown)
VH: QIQLVQSGPELKKPGETVKISCKASGYTLTNYGMNWVRQAPGKGLKWMGWIRPNTGEPTYAEDFKGRFVFSLETSAATAYLQITNLKSEDTSTYFCARLYRGNTLDNWGQGTSVIVSS
VL: DIVMTQSPSSLTVTTGEKVTMSCKSSQNLLNSGNQRNYLTWYQQKPGQSPKLLIYWASTRESGVPYRFTGSGSGTDFTLTISSVQTDDLAIYYCQNGYSFPFTFGSGTKLEIKR
notes: Murine variable regions on human IgG1 / kappa constant regions; also called 52E22 chimeric antibody
In assay [1], B7 had a Kd of 0.0996 nM, a Response of 0.223, a koff of 3.55e-05 s⁻¹ and an on-rate (kon) of 357000 M⁻¹ s⁻¹. Besides, in assay [5], the dissociation constant Kd is 1.11 nM, the off-rate (koff) is 0.000545 s⁻¹ and the kon was 490000 M⁻¹ s⁻¹. Moreover, the “Koff/Koff(Xi-IgG)” value in assay [3] turned out to be 1.
